{
  "source": "patent US20040121415A1",
  "about": "(published 2004)",
  "key": {"[1]": {"target": "Carcinoembryonic antigen (CEA) (UniProt P06731)", "sequence (P06731 35-685 limits assumed)": "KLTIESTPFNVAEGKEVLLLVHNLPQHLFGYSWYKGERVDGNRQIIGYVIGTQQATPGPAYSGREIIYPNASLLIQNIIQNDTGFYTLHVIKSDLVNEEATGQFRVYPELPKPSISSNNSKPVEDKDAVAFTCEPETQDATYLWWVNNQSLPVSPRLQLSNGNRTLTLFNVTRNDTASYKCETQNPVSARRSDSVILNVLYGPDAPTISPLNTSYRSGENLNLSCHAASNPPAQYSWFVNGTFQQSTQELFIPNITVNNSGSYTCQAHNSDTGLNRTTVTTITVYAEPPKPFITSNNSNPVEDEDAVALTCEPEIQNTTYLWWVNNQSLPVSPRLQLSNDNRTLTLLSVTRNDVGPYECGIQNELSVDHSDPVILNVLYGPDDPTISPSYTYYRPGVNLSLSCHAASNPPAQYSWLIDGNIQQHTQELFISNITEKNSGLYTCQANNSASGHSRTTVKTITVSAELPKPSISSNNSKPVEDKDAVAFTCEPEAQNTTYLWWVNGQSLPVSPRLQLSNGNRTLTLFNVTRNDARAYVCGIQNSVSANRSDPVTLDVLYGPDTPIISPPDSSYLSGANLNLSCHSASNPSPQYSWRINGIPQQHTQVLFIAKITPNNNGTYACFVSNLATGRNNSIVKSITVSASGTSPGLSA", "experiment": "SPR (Biacore 2000), oxidised CEA immobilised on CM5 chip, Fab′ injected"}, "[2]": {"target": "Carcinoembryonic antigen (CEA) (UniProt P06731)", "experiment": "SPR (Biacore 2000), oxidised CEA immobilised; relative to unmodified hA5B7 Fab′"}, "[3]": {"target": "T1, human TNF (human, UniProt P01375 77-233)", "T1 construct": "Soluble human TNF, used in the L929 assay and passed over captured antibody in BIAcore; also called human TNFα", "T1 sequence (P01375 77-233 limits assumed)": "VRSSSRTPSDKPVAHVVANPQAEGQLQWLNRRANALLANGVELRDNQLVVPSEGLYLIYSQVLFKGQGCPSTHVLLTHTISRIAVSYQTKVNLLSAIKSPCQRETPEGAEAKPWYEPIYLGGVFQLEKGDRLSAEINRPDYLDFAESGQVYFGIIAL", "experiment": "BIAcore as in Example 3: sample captured by anti-Fab′ antibody, human TNF passed over"}},
  "data": [
    {"molecule": "hA5B7 Fab′ (unmodified)", "values": [
      {"measurement": "Kd", "setting": "[1]", "value": 1.87, "unit": "nM"},
      {"measurement": "koff", "setting": "[1]", "value": 0.000161, "unit": "s⁻¹"},
      {"measurement": "kon", "setting": "[1]", "value": 86000, "unit": "M⁻¹ s⁻¹"},
      {"measurement": "Immunoreactivity", "setting": "[2]", "value": 100, "unit": "%"}
    ]},
    {"molecule": "hTNF40 IgG (antibody, V domains shown) VH: QIQLVQSGPELKKPGETVKISCKASGYVFTDYGMNWVKQAPGKAFKWMGWINTYIGEPIYVDDFKGRFAFSLETSASTAFLQINNLKNEDTATYFCARGYRSYAMDYWGQGTSVTVSS VL: DIVMTQSQKFMSTSVGDRVSVTCKATQNVGTNVAWYQQKPGQSPKALIYSASFLYSGVPYRFTGSGSGTDFTLTISTVQSEDLAEYFCQQYNIYPLTFGAGTKLELKR", "values": [
      {"measurement": "Kd", "setting": "[3]", "value": 0.156, "unit": "nM"}
    ]}
  ]
}
